From US20240384250A1, “FIBROBLAST GROWTH FACTOR 23 MODULATING COMPOUNDS” (THE UAB RESEARCH FOUNDATION, priority 2021, published 2024)
“Also recorded” adds a separate entry of the source.

B1: FGF23: recombinant fibroblast growth factor 23 protein from R&D Systems (protein)
chain: YPDTSPLLGSNWGSLTHLYTATARTSYHLQIHRDGHVDGTPHQTIYSALMITSEDAGSVVITGAMTRRFLCMDLHGNIFGSLHFSPENCKFRQWTLENGYDVYLSQKHHYLVSLGRAKRIFQPGTNPPPFSQFLARRNEVPLLHFYTVRPRRHTRSAEDPPERDPLNVLKPRPRATPVPVSCSRELPSAEEGGPAASDPLGVLRRGRGDARGGAGGADRCRPFPRFV
B2: sKL: recombinant soluble α-klotho ectodomain, mouse aa 35-982 and human aa 34-981, FLAG- or Strep/His-tagged, purified from HEK293 cells (protein)
chain: EPGDGAQTWARFSRPPAPEAAGLFQGTFPDGFLWAVGSAAYQTEGGWQQHGKGASIWDTFTHHPLAPPGDSRNASLPLGAPSPLQPATGDVASDSYNNVFRDTEALRELGVTHYRFSISWARVLPNGSAGVPNREGLRYYRRLLERLRELGVQPVVTLYHWDLPQRLQDAYGGWANRALADHFRDYAELCFRHFGGQVKYWITIDNPYVVAWHGYATGRLAPGIRGSPRLGYLVAHNLLLAHAKVWHLYNTSFRPTQGGQVSIALSSHWINPRRMTDHSIKECQKSLDFVLGWFAKPVFIDGDYPESMKNNLSSILPDFTESEKKFIKGTADFFALCFGPTLSFQLLDPHMKFRQLESPNLRQLLSWIDLEFNHPQIFIVENGWFVSGTTKRDDAKYMYYLKKFIMETLKAIKLDGVDVIGYTAWSLMDGFEWHRGYSIRRGLFYVDFLSQDKMLLPKSSALFYQKLIEKNGFPPLPENQPLEGTFPCDFAWGVVDNYIQVDTTLSQFTDLNVYLWDVHHSKRLIKVDGVVTKKRKSYCVDFAAIQPQIALLQEMHVTHFRFSLDWALILPLGNQSQVNHTILQYYRCMASELVRVNITPVVALWQPMAPNQGLPRLLARQGAWENPYTALAFAEYARLCFQELGHHVKLWITMNEPYTRNMTYSAGHNLLKAHALAWHVYNEKFRHAQNGKISIALQADWIEPACPFSQKDKEVAERVLEFDIGWLAEPIFGSGDYPWVMRDWLNQRNNFLLPYFTEDEKKLIQGTFDFLALSHYTTILVDSEKEDPIKYNDYLEVQEMTDITWLNSPSQVAVVPWGLRKVLNWLKFKYGDLPMYIISNGIDDGLHAEDDQLRVYYMQNYINEALKAHILDGINLCGYFAYSFNDRTAPRFGLYRYAADQFEPKASMKHYRKIIDSNGFPGPETLERFCPEEFTVCTECSFFHTRKS
modifications: left off: small tags and cut ends
notes: recombinant soluble α-klotho ectodomain, mouse aa 35-982 and human aa 34-981, FLAG- or Strep/His-tagged, purified from HEK293 cells

How the values were obtained:
male BALB/c mice = assay: Serial FGF23 and heparin injections in mice, echocardiography and heart weight; format: in vivo, mouse; conditions: heparin 125 USP/kg and/or FGF23 40 μg/kg
Procedure: FGF23 injections were administered following a similar protocol established previously. 13,72,73 Briefly, 12-week-old male BALB/c mice (The Jackson Laboratory) underwent tail vein injections. The day before the experiment, mice underwent echocardiographic analysis, as described below. Mice were anesthetized in 2.5% isoflurane and placed on a heat pad. Each group consisted of 5 mice, and different groups were injected with isotonic saline, heparin, FGF23, or FGF23 and heparin combined. Per injection, 40 μg/kg of FGF23 and 125, 62.5, or 12.5 USP/kg of heparin dissolved in 200 μl of isotonic saline were used, with 8 hours were used between injections for a total of 5 consecutive days. All injections were performed via the lateral tail vein. On the morning of the sixth day, 16 hours after the final tail vein injection, animals underwent echocardiographic analysis and were killed. Middle sections of hearts were cut along the short axis and stored overnight in 4% phosphate-buffered formaldehyde solution. Sections were sent to IDEXX Laboratories for embedding, hematoxylin and eosin (H&E) staining, and sectioning. Sections for wheat germ agglutinin (WGA) labeling were not stained by IDEXX Laboratories.
Echocardiographic analysis was performed on day 6 of the experiment for FGF23-injected mice by using the Vevo 770 or Vevo 3100 imaging system (FUJIFILM VisualSonics). Animals were anesthetized with 1.5% isoflurane, and normal body temperature was maintained using a rectal probe for temperature monitoring. For analysis, both B- and M-mode images were obtained in the short- and long-axis views. Correct positioning of the transducer was ensured using B-mode imaging in the long-axis view before switching to the short-axis view. Image analysis was performed using Vevo 770 Workstation and Vevo LAB software (FUJIFILM VisualSonics).

[1] = tested on: intact hearts isolated from adult mice; assay: Isolated heart contractility; parameters: species or system mouse; conditions: FGF23 9 ng/ml, 30 minutes
Procedure: Isolated heart contractility was performed as described previously. 14,70,71 Briefly, 2- to 3-month-old male CD-1 mice were anesthetized using 3% isoflurane and hearts were carefully removed and placed into oxygenated Ringer's solution composed of 140 mM NaCl, 2.0 mM KCl, 2.5 mM CaCl2), 1.0 mM MgSO4, 1.5 mM K2HPO4, 10 mM N-2-hydroxyethylpiperazine-N-2-ethanesulfonic acid, and 10 mM glucose (pH 7.4). Atria were then removed, and the intact ventricular muscle was attached to small metallic clips hung vertically from a force transducer (ADInstruments) between bipolar platinum-stimulating electrodes and suspended in 25-ml glass tissue chambers (ADInstruments). Heart muscles were perfused with Ringer's solution continuously bubbled with 100% O2 at room temperature. Hearts were stretched to the length of maximum force development and paced at 1 Hz (5 ms pulse duration, 30-60 V; Grass Instruments SD9 Square Pulse Stimulator). After a stable baseline was obtained, hearts were treated with either vehicle or FGF23 (9 ng/ml) alone or in combination with heparin (0.06 USP/ml) while contractile force output was monitored for 30 minutes. Contractile data were recorded and analyzed with LabChart 8 software (ADInstruments). Waveform changes were analyzed for peak contraction force (in millinewtons) and maximum slope of force development and presented as fold change from baseline values.

[2] = tested on: FGF21 binding to FGFR isoforms 1c, 2c, 3c, 4; assay: Pull-down and plate binding of FGF21 to FGFR isoforms with sKL or heparin; parameters: species or system human
Procedure: To study the interaction between Fc-tagged FGFR isoforms (Fc-FGFR), FGF isoforms, and sKL, immunoprecipitation studies were conducted. Protein A beads (6501, BioVision) and protein G beads (6511, BioVision) were used at 25 μl of a 50% stock slurry per sample in a total bead volume of 50 μl. Beads were washed 5× in activity buffer (50 mM Tris [pH 7.4], 200 mM NaCl, 0.01% Tween 20). Bead spin-down assays were all performed for 2 minutes at 5000 g. Beads were resuspended in 1 ml of activity buffer in a 1.5-ml snap cap tube. One microgram of Fc-FGFR1 to 4 was incubated with the beads for 1 hour on a bead rotator. Control samples were incubated with 2 μg of anti-FGF antibody instead of Fc-FGFR. […] Samples were analyzed using SDS-PAGE and Western blotting.
Proteins were coated on 96-well plates (MaxiSorp; 439454, Thermo Fisher Scientific), and proteins were added to wells in 100 μl of enzyme-linked immunosorbent assay (ELISA) coating buffer (E107, Bethyl Laboratories) with a lid placed overtop and incubated at 4° C. overnight. […] Reactions were stopped with ELISA stop solution (E115, Bethyl Laboratories) and analyzed using the Synergy HI plate reader (BioTek) at 450 nm wavelength. […] As a control to remove background absorbance values, wells were coated with an equal amount of BSA to match the amount of protein coated in experimental wells and treated the same as experimental wells. […]

Molecule | Endocardial % EF (male BALB/c mice) [%] | Endocardial % FAC (male BALB/c mice) [%] | Endocardial Area; s (male BALB/c mice) [mm²] | Endocardial major; d (male BALB/c mice) [mm] | Epicardial Area: s (male BALB/c mice) [mm²] | Epicardial Area; d (male BALB/c mice) [mm²] | Heart rate (male BALB/c mice) [BPM] | LV Mass; d (male BALB/c mice) [mg] | T; d (male BALB/c mice) [mm] | Endocardial Area; d (male BALB/c mice; i.v. 2 times per day for 5 days, mean ± SEM) [mm²] | peak contraction force [1] | binding of FGF21 to any of the FGFR isoforms [2]
B1 | 61.57 ± 3.48 | 51.38 ± 2.02 | 4.88 ± 0.34 | 7.94 ± 0.09 | 19.4 ± 0.46 | 23.1 ± 0.45 | 452.70 ± 4.48 | 122.10 ± 3.05 | 0.94 ± 0.02 | 9.93 ± 0.39 | increased cardiac contractile force | 
B2 |  |  |  |  |  |  |  |  |  |  |  | did not mediate binding; also recorded: did not lead to complex formation; also recorded: did not bind any of the FGFR isoforms
